{
  "source": "patent US10918700B2",
  "about": "“Lipid-based nanoparticles and use of same in optimized insulin dosing regimens” (SDG, Inc., priority 2019, dated 2021)",
  "key": {"[1]": {"test_system": "type 1 diabetes mellitus (T1DM)", "assay": "ISLE-1: hypoglycemia (CRF-reported and blinded CGM)", "protocol": "(§1) ISLE-1 was a 26-week, Phase 2b, multicenter, randomized, double-blind, trial in T1DM treated with multiple daily injections (MDI) of insulin.\n(§2) Informed of ˜10% dilution, participants continued their current insulin parameters. Hypoglycemia was recorded on Case Report Forms (CRFs) based on subject diaries and SMBG records, subjectively investigator-judged as “mild,” “moderate,” “severe,” or “life threatening.” Blinded continuous glucose monitoring (CGM) (Dexcom G4) was used for 5-7 days to assess glucose at baseline, weeks 13 and 26. A1c, lipids, and liver enzymes were measured approximately monthly. Liver fat content MRIs were performed in a subset.\nThe intent to treat (ITT) population included all randomized subjects receiving at least one dose of study treatment. Safety analyses included all randomized subjects. […] Mean A1c change was analyzed using ANCOVA within intent-to-treat (ITT) cohort at each visit. […] Poisson regression models adjusting for site as random effect compared “severe” hypoglycemia incidence rates within A1c groups, testing for baseline A1c by treatment group interaction. Event number/subject was truncated at 15, accounting for extreme outliers."}, "[2]": {"test_system": "type 1 diabetes mellitus (T1DM)", "assay": "ISLE-1: lipids, liver enzymes, liver fat MRI, adverse events", "type": "in vivo, human", "conditions": "over study", "protocol": "as §1, §2\nThe intent to treat (ITT) population included all randomized subjects receiving at least one dose of study treatment. Safety analyses included all randomized subjects. […] Mean A1c change was analyzed using ANCOVA within intent-to-treat (ITT) cohort at each visit. […] Direct likelihood models were used for treatment arm A1c comparisons, % time <54 mg/dL, bolus insulin, and basal insulin within the two A1c subgroups. Poisson regression models adjusting for site as random effect compared “severe” hypoglycemia incidence rates within A1c groups, testing for baseline A1c by treatment group interaction. Event number/subject was truncated at 15, accounting for extreme outliers."}, "[3]": {"test_system": "type 1 diabetes mellitus (T1DM)", "assay": "ISLE-1 26-week Phase 2b randomized double-blind trial: A1c", "type": "in vivo, human", "conditions": "ITT, 26 weeks", "protocol": "ISLE-1 was a 26-week, Phase 2b, multicenter, randomized, double-blind, non-inferiority trial.\nas §1\nMain exclusion criteria were total insulin dose ≥1.5 IU/kg/day or NPH insulin as basal.\nPrandial dosing of HDV-lispro or control lispro was 15 minutes prior to the meal, and basal insulins were administered either as a single daily dose or a divided twice per day dosing, every 12 hours.\nas §2\nThe intent to treat (ITT) population included all randomized subjects receiving at least one dose of study treatment. Safety analyses included all randomized subjects. […] Mean A1c change was analyzed using ANCOVA within intent-to-treat (ITT) cohort at each visit. […]"}, "[4]": {"test_system": "type 1 diabetes (T1D)", "assay": "Example 3, 6-month open label study: insulin dosing, A1C, mean daily glucose, weight", "type": "in vivo, human", "conditions": "61 enrollees, mean baseline A1C 7.3", "from_the_text": "Subcutaneous (SC) insulin is non-physiologic, since pancreatic insulin goes first to the liver. The present study was designed to determine whether delivery of Hepatic Directed Vesicles (HDV) admixed with lispro/HUMALOG® (HDV-L) decreases hypoglycemia in well controlled patients on multiple daily injections (MDI) with type 1 diabetes (T1D) using unblinded Dexcom G6 continuous glucose monitoring (CGM).\nThis study was a 6-month (mo) open label study of prandial insulin (lispro, 3 mo, then HDV-L, 3 mo) with basal insulin degludec (TRESIBA®) and unblinded continuous glucose monitoring (CGM) in T1D with baseline A1C 6.5-8.5%. Insulin dosing, hypoglycemia, and daily glucose control were among the monitored parameters.\nIn this study the target fasting blood glucose was 80-100 mg/dL. At 3 mo subjects were randomized to −10% or −40% basal dose to encourage titration with HDV-L. Physicians titrated basal insulin weekly. A hypoglycemic event was defined as ≥15 min of CGM≤54 mg/dL."}, "[5]": {"test_system": "type 1 diabetes mellitus (T1DM)", "assay": "Continuous glucose monitoring results, Good to Great Hypoglycemia study (Table 1)", "type": "in vivo, human", "protocol": "A1c, lipids, and liver enzymes were measured approximately monthly. Liver fat content MRIs were performed in a subset.\nSafety analyses included all randomized subjects.\nTable 1 summarizes continuous glucose monitoring results in the Good to Great Hypoglycemia study, in terms of increased HDV-related hypoglycemia events."}},
  "data": [
    {"substance": "insulin lispro", "values": [
      {"measurement": "CRF-reported incidence of \"severe\" hypoglycemia", "setting": "[1]; baseline A1c<8.5%", "result": 21, "unit": "events/100 person-years"},
      {"measurement": "time <54 mg/dL during Week 26 (median)", "setting": "[1]; baseline A1c<8.5%, CGM", "result": 0.6, "unit": "%"},
      {"measurement": "CRF-reported incidence rate of \"severe\" hypoglycemia", "setting": "[1]; baseline A1c≥8.5%", "result": 97, "unit": "events/100 person-years"},
      {"measurement": "percentage time <54 mg/dL during Week 26 (median)", "setting": "[1]; baseline A1c≥8.5%, CGM", "result": 2.6, "unit": "%"},
      {"measurement": "change in total cholesterol", "setting": "[2]", "result": 7.3, "unit": "mg/dL"},
      {"measurement": "Mean change in A1c baseline to Week 26", "setting": "[3]", "result": "−0.16", "unit": "%"},
      {"measurement": "A1C after 3 mo optimization", "setting": "[4]", "result": 6.9, "unit": "%"},
      {"measurement": "% Time <54 mg/dL, median", "setting": "[5]; Baseline", "result": 2.1, "unit": "%"},
      {"measurement": "% Time <70 mg/dL, median", "setting": "[5]; Baseline", "result": 5.8, "unit": "%"},
      {"measurement": "Area above curve <54 mg/dL, median", "setting": "[5]; Baseline", "result": 0.1},
      {"measurement": "Area above curve <70 mg/dL, median", "setting": "[5]; Baseline", "result": 0.9},
      {"measurement": "% Time <54 mg/dL, median", "setting": "[5]; Endpoint", "result": 1.7, "unit": "%"},
      {"measurement": "% Time <70 mg/dL, median", "setting": "[5]; Endpoint", "result": 5.6, "unit": "%"},
      {"measurement": "Area above curve <54 mg/dL, median", "setting": "[5]; Endpoint", "result": 0.1},
      {"measurement": "Area above curve <70 mg/dL, median", "setting": "[5]; Endpoint", "result": 0.7}
    ]}
  ]
}
